Test results as given in patent US20260201038A1 (CELLABMED, published 2026).

Tests used:
WFCLTGALEVQVPED = target: T1, WFCLTGALEVQVPED; assay: peptide microarray, 15-mers of human 4Ig B7-H3; panel Ig-like-V type 1
T1 construct: 15-mer of human 4Ig B7-H3 on the peptide microarray, panel Ig-like-V type 1
T1 peptide: WFCLTGALEVQVPED
Method: (§1) It was confirmed that G2D IgG has linear epitopes since G2D was verified to recognize 4lg B7-H3 through western blot (FIG. 10a). Therefore, linear epitope mapping was conducted by Pepperprint GmbH (Germany). After preparing a peptide microarray from the 15 4lg B7-H3 amino acids with 14-amino acid overlaps, the antibodies binding to peptides were identified using secondary antibodies (FIG. 10b). As a result, it was confirmed that G2D IgG binds to a peptide having a sequence of EVQVP (FIG. 10c). EVQVP is located in the Ig-like V-type1 and Ig-like V-type2 domains of 4lg B7-H3 (FIGS. 10d and 10e). When the epitopes of the control antibody enoblituzumab were identified by the same method, it was confirmed that the epitopes include the sequence of GYPEAE (FIG. 10b), and GYPEAE is located in the Ig-like C2-type1 and Ig-like C2-type2 domains of 4lg B7-H3 (FIGS. 10d and 10e). As a result, it was confirmed that G2D IgG and the control antibody enoblituzumab have different epitopes.

FCLTGALEVQVPEDP = target: T2, FCLTGALEVQVPEDP; assay: as above
T2 construct: 15-mer of human 4Ig B7-H3 on the peptide microarray, panel Ig-like-V type 1
T2 peptide: FCLTGALEVQVPEDP
Method: as §1

CLTGALEVQVPEDPV = target: T3, CLTGALEVQVPEDPV; assay: as above
T3 construct: 15-mer of human 4Ig B7-H3 on the peptide microarray, panel Ig-like-V type 1
T3 peptide: CLTGALEVQVPEDPV
Method: as §1

TGALEVQVPEDPVVA = target: T4, TGALEVQVPEDPVVA; assay: as above
T4 construct: 15-mer of human 4Ig B7-H3 on the peptide microarray, panel Ig-like-V type 1
T4 peptide: TGALEVQVPEDPVVA
Method: as §1

LEVQVPEDPVVALVG = target: T5, LEVQVPEDPVVALVG; assay: as above
T5 construct: 15-mer of human 4Ig B7-H3 on the peptide microarray, panel Ig-like-V type 1
T5 peptide: LEVQVPEDPVVALVG
Method: as §1

LWFCLTGALEVQVPE = target: T6, LWFCLTGALEVQVPE; assay: as above
T6 construct: 15-mer of human 4Ig B7-H3 on the peptide microarray, panel Ig-like-V type 1
T6 peptide: LWFCLTGALEVQVPE
Method: as §1

ALWFCLTGALEVQVP = target: T7, ALWFCLTGALEVQVP; assay: as above
T7 construct: 15-mer of human 4Ig B7-H3 on the peptide microarray, panel Ig-like-V type 1
T7 peptide: ALWFCLTGALEVQVP
Method: as §1

LTGALEVQVPEDPVV = target: T8, LTGALEVQVPEDPVV; assay: as above
T8 construct: 15-mer of human 4Ig B7-H3 on the peptide microarray, panel Ig-like-V type 1
T8 peptide: LTGALEVQVPEDPVV
Method: as §1

GALEVQVPEDPVVAL = target: T9, GALEVQVPEDPVVAL; assay: as above
T9 construct: 15-mer of human 4Ig B7-H3 on the peptide microarray, panel Ig-like-V type 1
T9 peptide: GALEVQVPEDPVVAL
Method: as §1

B7-DC = target: T10, B7-DC (UniProt Q9BQ51 20-219, limits assumed); assay: indirect ELISA, B7-DC coated at 1 ug/mL, absorbance at 450 nm
T10 sequence (looked up): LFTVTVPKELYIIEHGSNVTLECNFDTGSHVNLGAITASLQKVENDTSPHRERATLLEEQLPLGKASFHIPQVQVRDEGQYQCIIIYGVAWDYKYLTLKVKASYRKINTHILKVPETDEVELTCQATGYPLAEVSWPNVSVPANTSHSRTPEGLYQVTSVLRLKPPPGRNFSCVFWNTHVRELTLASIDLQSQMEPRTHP
Method: [The procedure below names another target; the source lists this target under the same test.] The binding ability of 2D IgG prepared in Example 2 for recombinant B7-H3 protein was investigated by indirect ELISA. For indirect ELISA, recombinant human 4lg B7-H3, recombinant human 2lg B7-H3 and recombinant mouse B7-H3 were diluted respectively to 1 μg/mL in 50 μL of PBS and adsorbed overnight onto a 96-well immunoplate (Corning, USA) by storing at 4° C. After reaction with a buffer solution containing 3% bovine serum albumin at room temperature for 1 hour, followed by washing 3 times with a buffer solution containing 0.5% Tween 20, each well was treated with 50 μL of the antibodies diluted serially (0.0001, 0.0003, 0.001, 0.003, 0.01, 0.03, 0.1, 0.3, 1, 3 and 10 nM). For antigen-antibody binding, the mixture was reacted at room temperature for 2 hours, and then washed 3 times with a buffer solution containing 0.5% Tween 20. After treating each well with 50 μL of anti-human immunoglobulin Fc-HRP antibodies (Jackson Immunoresearch, USA) diluted to 1:3,000, reaction was conducted at room temperature for 1 hour. […] As a result of measuring absorbance at 450 nm using a spectrophotometer (Biotek, USA), it was confirmed that 2D IgG binds to B7-H3, and the binding ability was in the order of 4lg B7-H3, 2lg B7-H3 and mouse B7-H3 (FIG. 2a). […]

[1] = target: B7-H3 on human cancer cells (human) (UniProt Q5ZPR3); assay: flow cytometry on NCI-H1975 lung cancer cells; control (secondary antibody only) < 5%
[2] = target: B7-H3 on human cancer cells (human) (UniProt Q5ZPR3); assay: flow cytometry on MIA-PaCa2 pancreatic cancer cells; control (secondary antibody only) < 25%
[3] = target: B7-H3 on human cancer cells (human) (UniProt Q5ZPR3); assay: flow cytometry on HepG2 liver cancer cells; control (secondary antibody only) < 10%

fluorescence intensity of the peptide spot (WFCLTGALEVQVPED): 24.8 | fluorescence intensity of the peptide spot (FCLTGALEVQVPEDP): 63 | fluorescence intensity of the peptide spot (CLTGALEVQVPEDPV): 138 | fluorescence intensity of the peptide spot (TGALEVQVPEDPVVA): 21 | fluorescence intensity of the peptide spot (LEVQVPEDPVVALVG): 30.5 | fluorescence intensity of the peptide spot (LWFCLTGALEVQVPE): 17.3 | fluorescence intensity of the peptide spot (ALWFCLTGALEVQVP): 122 | fluorescence intensity of the peptide spot (LTGALEVQVPEDPVV): 154 | fluorescence intensity of the peptide spot (GALEVQVPEDPVVAL): 20 | binding result (B7-DC): no binding (tested: 10 nM) | % of cells in the positive gate [1]: > 80% | % of cells in the positive gate [2]: > 95% | % of cells in the positive gate [3]: > 95%
B1: G2D IgG (antibody, V domains shown)
VH: QVQLVESGGGLVQPGGSLRLSCSASGFDFSSYPMVWVRQAPGKGLEYVSSINSGGSWTGYGAAVKGRATISRDNSKNTLYLQMNSLRAEDTATYYCARAYGAATIDAWGQGTTVTVSS
VL: SYELTQPPSVSVSPGQTARITCSGGSIGYGWYQQKAPGQAPVTVIYYNDRRPSGIPERFSGSKSGTTNTLTISGVQAEDEADYYCGSADSSSTYTGIFGGGTKLTVL
notes: The back-substitutions (L46T, S66K, V71N in VL); also called humanized 2D; G2D antibody
